Earlier results, collected in paper PMC2715106.

Columns and labels:
[1] = biological target: core RNA polymerase (Escherichia coli) (UniProt P0A7Z4); assay: in vitro transcription
[2] = biological target: core RNA polymerase (Escherichia coli) (UniProt P0A7Z4); assay: SEC

sigma32, sequence (P0AGB3 whole entry): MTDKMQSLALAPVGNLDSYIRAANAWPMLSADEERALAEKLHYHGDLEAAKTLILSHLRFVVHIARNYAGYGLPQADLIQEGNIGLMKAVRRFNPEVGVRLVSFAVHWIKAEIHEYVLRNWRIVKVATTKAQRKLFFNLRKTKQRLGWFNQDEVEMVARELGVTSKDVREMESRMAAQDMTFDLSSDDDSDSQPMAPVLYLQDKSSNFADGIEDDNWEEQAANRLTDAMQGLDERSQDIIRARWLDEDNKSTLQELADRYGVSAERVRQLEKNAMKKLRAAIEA

sigma32 (from UniProt P0AGB3)
Kd [1]: 1 nM
Kd [2]: 1.24 nM
